From publication PMC9502857, “Heterologous Expression and Catalytic Properties of Codon-Optimized Small-Sized Bromelain from MD2 Pineapple” (Molecules, 2022)

System: O=C(CNC(=O)OCc1ccccc1)Oc1ccc([N+](=O)[O-])cc1
Experiment: purified protein
Details: 20 mM Tris-HCl pH 8.0, 37 °C (methods; results pH 5.0), GST fusion

Substance: MD2-SBro (small-sized bromelain from MD2 pineapple) (Ananas comosus)
- Km: 42.1 ± 3.81 µM
- Vmax: 0.432 µM/min
- kcat: 0.2 ± 0.008 s⁻¹
- kcat/Km: 4750 ± 230 M⁻¹ s⁻¹
